What was measured:
[1] = tested on: subcutaneous, inguinal white adipocytes; test: Ucp1 / brown adipocyte marker mRNA (qPCR) in immortalized inguinal white adipocytes treated with FGFs; type: cell-based, murine; settings: inguinal adipocytes; six days of differentiation; FGF8a, b, e, f 25.0 ng/ml, FGF17 10.0 ng/ml
Method: (§1) Screening paracrine FGFs for a browning potential. A, B—Screening of all paracrine FGFs in immortalized white adipocytes. Subcutaneous, inguinal and visceral, epididymal white adipocytes were grown to confluence in Dulbecco's modified Eagle's medium with 4.5 g/l glucose, supplemented with 20 nmol/l insulin, 1 nmol/l triiodothyronine, 20% fetal bovine serum, and penicillin/streptomycin. Upon reaching confluence, differentiation was induced with 500 mmol/l isobutylmethylxanthine, 250 mmol/l indomethacine, and 2 mg/ml dexamethasone for 24 hours. Subsequently, members of the paracrine FGF protein family were added to the medium for the following six days. The medium and the FGF indicated were changed every 48 hours. Untreated cells served as a negative control. At the end of the differentiation process total RNA was isolated using TRIzol reagents, RNA quality and concentration was measured by photometric analysis, and 5 μg of total RNA was reverse-transcribed to cDNA. Finally, quantitative analysis of UCP-1 mRNA expression was performed. A bar graph analysis including the SEM of 3 to 6 independent experiments is shown. […] B—Four different splicing forms of the Fgf8 gene were compared by quantifying Ucp1 mRNA expression in fully differentiated white adipocytes. UCP-1 mRNA abundance is shown in percent of the FGF8b value. Fgf8b and Fgf8f were able to increase expression in epididymal adipocytes. C—Illustration depicting the different exon usage that characterizes the FGF8 spliceforms a, b, e, and f.
(§2) Dose dependency of Ffg8b action. A, B—Subcutaneous, inguinal and visceral, epididymal white adipocytes were grown to confluence in Dulbecco's modified Eagle's medium with 4.5 g/l glucose, supplemented with 20 nmol/l insulin, 1 nmol/l triiodothyronine, 20% fetal bovine serum, and penicillin/streptomycin. Upon reaching confluence, differentiation was induced with 500 mmol/l isobutylmethylxanthine, 250 mmol/l indomethacine, and 2 mg/ml dexamethasone for 24 hours. Subsequently, FGF8b in five indicated concentrations were added to the medium for the following six days. The medium and the FGF8b were changed every 48 hours. Untreated cells served as a negative control. At the end of the differentiation process total RNA was isolated using TRIzol reagents, RNA quality and concentration was measured by photometric analysis, and 5 μg of total RNA was reverse-transcribed to cDNA. Finally, quantitative analysis of UCP-1 mRNA expression was performed. FGF8b induces Ucp1 mRNA abundance in inguinal and epididymal adipocytes. Epididymal fat cells were more dose dependently responsive to Fgf8b treatment as compared to inguinal cells. The latter were responsive to FGF8b treatment above the threshold indicated. B—The absolute increase of several genes typical for brown fat cells.
(§3) Treatment timecourse experiment. A, B—Subcutaneous, inguinal and visceral, epididymal white adipocytes were grown to confluence (prolif. denotes proliferation period) in Dulbecco's modified Eagle's medium with 4.5 g/l glucose, supplemented with 20 nmol/l insulin, 1 nmol/l triiodothyronine, 20% fetal bovine serum, and penicillin/streptomycin. Upon reaching confluence, differentiation was induced with 500 mmol/l isobutylmethylxanthine, 250 mmol/l indomethacine, and 2 mg/ml dexamethasone for 24 hours (induction). Subsequently, the cells were cultured for another six days (differentiation). At the end of the differentiation process total RNA was isolated using TRIzol reagents, RNA quality and concentration was measured by photometric analysis, and 5 μg of total RNA was reverse-transcribed to cDNA. Finally, quantitative analysis of UCP-1 mRNA expression was performed. Untreated cells served as a negative control. A bar graph analysis including the SEM of 5 independent experiments is shown. A—Epididymal fat cells were treated with FGF8b during different time windows as given by black squares indicating one day of treatment each. […]

[2] = tested on: visceral, epididymal white adipocytes; test: Ucp1 / brown adipocyte marker mRNA (qPCR) in immortalized epididymal white adipocytes treated with FGFs; type: cell-based, murine; settings: epididymal adipocytes; six days of differentiation; FGF8a, b, e, f 25.0 ng/ml, FGF17 10.0 ng/ml
Method: as §1, §2, §3

[3] = tested on: subcutaneous white adipose tissue; settings: cited from earlier work

B1: FGF17: human recombinant fibroblast growth factor 17 (PeproTech), FGF8 subfamily; SEQ ID NO:23 (protein)
chain: MGAARLLPNLTLCLQLLILCCQTQGENHPSPNFNQYVRDQGAMTDQLSRRQIREYQLYSRTSGKHVQVTGRRISATAEDGNKFAKLIVETDTFGSRVRIKGAESEKYICMNKRGKLIGKPSGKSKDCVFTEIVLENNYTAFQNARHEGWFMAFTRQGRPRQASRSRQNQREAHFIKRLYQGQLPFPNHAEKQKQFEFVGSAPTRRTKRTRRPQPLT
modifications: human FGF17
For B1, the “Induction of Ucp1 mRNA expression (browning potential), screening of paracrine FGFs and FGF8 spliceforms” value (shortened to “Induction of Ucp1 mRNA expression”) [1] was “strongly induce Ucp1 mRNA expression” and the “Induction of Ucp1 mRNA expression” value [2] was “increased expression of Ucp1 mRNA expression”.

B2: FGF8f: human recombinant FGF8 spliceform f (R&D Systems); SEQ ID NO:18 (protein)
chain: MGSPRSALSCLLLHLLVLCLQAQEGPGRGPALGRELASLFRAGREPQGVSQQVTVQSSPNFTQHVREQSLVTDQLSRRLIRTYQLYSRTSGKHVQVLANKRINAMAEDGDPFAKLIVETDTFGSRVRVRGAETGLYICMNKKGKLIAKSNGKGKDCVFTEIVLENNYTALQNAKYEGWYMAFTRKGRPRKGSKTRQHQREVHFMKRLPRGHHTTEQSLRFEFLNYPPFTRSLRGSQRTWAPEPR
modifications: human FGF8f
In the case of B2, the “Induction of Ucp1 mRNA expression” value [1] is reported as “only effective in inducing Ucp1 expression in adipocytes of epididymal adipocytes” and the “Induction of Ucp1 mRNA expression” value [2] is reported as “effective”.

B3: FGF21: endocrine fibroblast growth factor 21, prior-art browning factor (Fisher et al. 2012) (protein, UniProt Q9NSA1 29-209, looked up)
Fibroblast growth factor 21: HPIPDSSPLLQFGGQVRQRYLYTDDAQQTEAHLEIREDGTVGGAADQSPESLLQLKALKPGVIQILGVKTSRFLCQRPDGALYGSLHFDPEACSFRELLLEDGYNVYQSEAHGLPLHLPGNKSPHRDPAPRGPARFLPLPGLPPALPEPPGILAPQPPDVGSSDPLSMVGPSQGRSPSYAS
For B3, the “Appearance of brown-like adipocytes” value [3] is listed as “increases the appearance of brown-like adipocytes”.

B4: FGF8a: human recombinant FGF8 spliceform a (R&D Systems); SEQ ID NO:15 (protein)
chain: MGSPRSALSCLLLHLLVLCLQAQHVREQSLVTDQLSRRLIRTYQLYSRTSGKHVQVLANKRINAMAEDGDPFAKLIVETDTFGSRVRVRGAETGLYICMNKKGKLIAKSNGKGKDCVFTEIVLENNYTALQNAKYEGWYMAFTRKGRPRKGSKTRQHQREVHFMKRLPRGHHTTEQSLRFEFLNYPPFTRSLRGSQRTWAPEPR
modifications: human FGF8a
With B4 the “Induction of Ucp1 mRNA expression” value [1] was “did not induce Ucp1 mRNA expression” and the “Induction of Ucp1 mRNA expression” value [2] was “did not induce Ucp1 mRNA expression”.

B5: FGF8e: human recombinant FGF8 spliceform e (R&D Systems); SEQ ID NO:17 (protein)
chain: MGSPRSALSCLLLHLLVLCLQAQEGPGRGPALGRELASLFRAGREPQGVSQQHVREQSLVTDQLSRRLIRTYQLYSRTSGKHVQVLANKRINAMAEDGDPFAKLIVETDTFGSRVRVRGAETGLYICMNKKGKLIAKSNGKGKDCVFTEIVLENNYTALQNAKYEGWYMAFTRKGRPRKGSKTRQHQREVHFMKRLPRGHHTTEQSLRFEFLNYPPFTRSLRGSQRTWAPEPR
modifications: human FGF8e
For B5, the “Induction of Ucp1 mRNA expression” value [1] was “did not induce Ucp1 mRNA expression” and the “Induction of Ucp1 mRNA expression” value [2] was “did not induce Ucp1 mRNA expression”.
